Data published in patent publication US20160257756A1 (CONSEJO SUPERIOR DE INVESTIGACIONES CIENTIFICAS C S I C, published 2016).

Biological target: T1, human chemokine receptor CCR9 (human, UniProt P51686 1-369, N-glycosylated at Asn32 on cells (removed by PNGase F in some Western blots); the letters do not carry this)
T1 construct: On stably transfected HEK293 cells, endogenous on MOLT-4 cells, thymocytes and blood lymphocytes; also as membrane extracts in Western blots (with or without PNGase F); also called hCCR9; human CCR9
T1 sequence: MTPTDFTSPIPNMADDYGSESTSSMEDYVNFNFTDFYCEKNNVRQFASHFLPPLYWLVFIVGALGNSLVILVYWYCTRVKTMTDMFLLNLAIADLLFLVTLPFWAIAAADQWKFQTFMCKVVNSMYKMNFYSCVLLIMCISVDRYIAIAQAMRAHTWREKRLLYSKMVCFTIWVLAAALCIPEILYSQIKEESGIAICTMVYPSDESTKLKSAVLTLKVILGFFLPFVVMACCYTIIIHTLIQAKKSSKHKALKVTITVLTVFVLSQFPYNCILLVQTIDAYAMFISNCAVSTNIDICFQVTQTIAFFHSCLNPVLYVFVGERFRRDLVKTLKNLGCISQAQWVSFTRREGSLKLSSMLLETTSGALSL
Test: flow cytometry on MOLT-4 cells, hCCL25 10 µg/ml before 91R (0.5 µg/ml)
Procedure: To study whether CCL25 affects CCR9 recognition by 91R, MOLT-4 cells were preincubated alone or with hCCL25, in the presence of sodium azide to inhibit receptor internalization (40 min, 4° C.), followed by incubation with 91R and flow cytometry analysis.

binding result: binds
B1: recombinant human CCL25 (ligand, UniProt O15444 24-150, looked up)
chain: QGVFEDCCLAYHYPIGWAVLRRAWTYRIQEVSGSCNLPAAIFYLPKRHRKVCGNPKSREVQRAMKLLDARNKVFAKLHHNTQTFQAGPHAVKKLSSGNSKLSSSKFSNPISSSKRNVSLLISANSGL
notes: Bought (Peprotech); also called hCCL25; TECK
